Reference: US20130108549A1 (ADLYFE, published 2013)
pyrene = pyrene fluorescent label

Target: Aβ42 fibers (Homo sapiens (Human), UniProt P05067 672-713)
Assay: pyrene excimer fluorescence (FIG. 11A legend)

Aβ42 fibers, sequence (P05067 672-713 limits assumed): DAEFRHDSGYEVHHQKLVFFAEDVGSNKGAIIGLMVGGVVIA

B1: Peptide probe specific for Aβ (SEQ ID NO:36) labeled at each terminus with pyrene (peptide)
peptide: pyrene-KLVFFAEDVGSNKGAIIGLM-pyrene
notes: also called Aβ peptide probe; dipyrene labeled peptide probe
  binding result: binds
